Test results from patent US20100143349A1 (Pfizer, published 2010).
Residue numbers refer to the chain shown, from its start. Several values for one entry are separate records, joined by “and”; a condition that tells them apart may be missing. Identical values can stand only once.

B1: 6B6 scFv-Fc fusion (Fc fusion)
chain: DIQMTQSPSSLSASVGDRVTITCRASQDVGIYVNWFQQKPGKAPRRLIYRATNLADGVPSRFSGSRSGTDFTLTISSLQPEDFATYYCLEFDEHPLTFGGGTKVEIKDGGGSGGGGSGGGGSSEVQLVESGGGLVQPGGSLRLSCAASGFTFNNYWMTWVRQAPGKGLEWVASIDNSGDNTYYPDSVKDRFTISRDNAKNSLYLQMNSLRAEDTAVYYCARGGDIIISLDWWGQGTLVTVSS
notes: Substitutions derived from the printed HCDR3; not shown: wild-type human IgG Fc (hinge and constant domains)
B2: 6C2 scFv-Fc fusion (Fc fusion)
chain: B1 chain with I226K, I227V, W231R
notes: not shown: wild-type human IgG Fc (hinge and constant domains)
B3: 6C3 scFv-Fc fusion (Fc fusion)
chain: B1 chain with I226T, I227L, S228G, W231V
notes: as for B2
B4: 6G4 scFv-Fc fusion (Fc fusion)
chain: B1 chain with I226L, I227D, D230H, W231F
notes: Assayed separately; fold gain against the M4 value of the ribosome display set; not shown: wild-type human IgG Fc (hinge and constant domains)
B5: 8G9 scFv-Fc fusion (Fc fusion)
chain: B1 chain with G139S, I226T, I227T, S228G, W231Y
notes: as for B2
B6: 10D8 scFv-Fc fusion (Fc fusion)
chain: B1 chain with R18K, I31F, G114N, G133E, I226T, I227T, S228G, L229F, W231Y
notes: also called 10D8 (b); not shown: wild-type human IgG Fc (hinge and constant domains)
B7: 10G10 scFv-Fc fusion (Fc fusion)
chain: B1 chain with K103R, T158S, D179E, I226T, I227T, S228G, L229F, W231Y
notes: as for B2
B8: S1R5A1_3B3 scFv (scFv)
scFv: B1 chain with I31F, I226T, I227T, S228G, W231Y
B9: S1R5A1_10G10 scFv (scFv)
scFv: B1 chain with K103R, T158S, D179E, I226T, I227T, S228G, L229F, W231Y
B10: S2R3A1_2E6 scFv (scFv)
scFv: B1 chain with S122N, G132V, I226T, I227N, S228G, W231Y
notes: also called 2E6 (c)
B11: S2R3A1_5H3 scFv (scFv)
scFv: B1 chain with Y49D, Q126L, I226T, I227T, S228G, L229F, W231Y
B12: S2R3A1_8G9 scFv (scFv)
scFv: B1 chain with G139S, I226T, I227T, S228G, W231Y
B13: S2R4A3_5A3 scFv (scFv)
scFv: B1 chain with R18I, G68S, Q205K, A220T, I226T, I227T, S228G, W231Y
B14: S2R4A3_10D8 scFv (scFv)
scFv: B1 chain with R18K, I31F, G114N, G133E, I226T, I227T, S228G, L229F, W231Y
notes: also called 10D8 (b)
B15: S2R4A3_10H6 scFv (scFv)
scFv: B1 chain with R18G, R24Q, D108N, I226T, I227T, S228G, W231Y, V240E
notes: also called 10H6 (a)
B16: S2R4A4_1G6 scFv (scFv)
scFv: B1 chain with I31F, I226T, I227N, S228G, L229F, W231Y
B17: parental XT-M4 scFv-Fc fusion (Fc fusion)
chain: B1 chain with I226T, I227T, S228G, L229F, W231Y
notes: Bivalent scFv-Fc made in COS cells; not shown: wild-type human IgG Fc (hinge and constant domains)
B18: parental XT-M4 scFv (VH 2.0, VL 2.11), VL-VH format (scFv)
scFv: B1 chain with I226T, I227T, S228G, L229F, W231Y
notes: also called M4WT

The binders below were run against T1, HU-RAGE-SA (human, UniProt Q15109 23-342) (assay: BIAcore kd against parental M4 scFv-Fc).
T1 construct: extracellular domain; Directly immobilized on a CM5 chip (~100 RU); also called hRAGE-SA; soluble human streptavidin-tagged RAGE; not shown: streptavidin tag (SA)
T1 sequence (Q15109 23-342): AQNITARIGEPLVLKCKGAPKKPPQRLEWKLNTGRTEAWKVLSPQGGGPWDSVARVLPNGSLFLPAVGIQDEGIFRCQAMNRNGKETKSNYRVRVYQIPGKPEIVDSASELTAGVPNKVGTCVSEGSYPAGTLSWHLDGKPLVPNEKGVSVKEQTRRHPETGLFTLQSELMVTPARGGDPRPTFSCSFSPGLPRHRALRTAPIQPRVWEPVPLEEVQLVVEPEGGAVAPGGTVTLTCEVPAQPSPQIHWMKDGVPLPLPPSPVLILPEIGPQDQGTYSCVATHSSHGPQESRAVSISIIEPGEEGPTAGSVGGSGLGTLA
B1 was tested, and the “Fold change in kd” value was 20.8 fold. B2 was tested, and the “Fold change in kd” value was 19.2 fold. B3 was tested, and the “Fold change in kd” value was 60 fold. B4 was tested, and the “Fold change in kd” value was 7.6 fold. In the case of B5, the “Fold change in kd” value is reported as 3.9 fold. In the case of B6, the “Fold change in kd” value is reported as 51.8 fold. In the case of B7, the “Fold change in kd” value is reported as 0.28 fold.

Each binder was assayed against T2, hRAGE-Fc (human, UniProt Q15109 23-342, biotin label in the selections and HTRF assays) (assay: IC50 of parental M4 scFv over IC50 of clone, HTRF competition).
T2 construct: extracellular domain; also called biotin labeled hRAGE-Fc; Biotin-labeled RAGE-Fc; not shown: Fc part
T2 sequence (Q15109 23-342): as above
Protocol: (§1) Increases in binding to RAGE antigen were detected with the aid of a competition assay using parental XT-M4 antibody. Both phage display and ribosome display libraries were selected for affinity improved variants by incubating with biotin labeled hRAGE-Fc, recovering binding clones using streptavidin magnetic beads and washing away non binding variants. Sequential rounds of selection were carried on decreasing antigen concentrations to drive the preferential recovery of higher affinity variants. Clones recovered after selection were subsequently screening for improved binding to hRAGE-Fc using HTRF. This is an assay that measures the decrease in fluorescence upon binding of parental europium cryptate-labeled XT-M4 to RAGE in the presence of competing test scFv antibodies. In these assays, periplasmic preparations of scFv were prepared from bacterial cultures and added in increasing concentrations to a combination of parental antibody and antigen. The ability of the scFV to compete with parental XT-M4 antibody to bind to Biotin-labeled RAGE-Fc was determined. In the presence of avidin-XL665 complex labeled XT-M4 bound to biotinylated RAGE-FC was detected by Fluorescence. Increasing amounts of scFv that competed with the XT-M4 for binding to biotinylated-RAGE-Fc was detected as a decrease in fluorescence. A sequential process of screening was used to focus in on a smaller number of clones with the greatest competition in HTRF assay
B8 was tested, and the “Fold gain scFv (hRAGE)” value was 15 fold. For B9, the “Fold gain scFv (hRAGE)” value was 2 fold. In the case of B10, the “Fold gain scFv (hRAGE)” value is reported as 17.3 fold. With B11 the “Fold gain scFv (hRAGE)” value was 4 fold. For B12, the “Fold gain scFv (hRAGE)” value was 13.8 fold. In the case of B13, the “Fold gain scFv (hRAGE)” value is reported as 11 fold. For B14, the “Fold gain scFv (hRAGE)” value was 12.7 fold. B15 was tested, and the “Fold gain scFv (hRAGE)” value was 110 fold. For B16, the “Fold gain scFv (hRAGE)” value was 21.5 fold.

The binders below were run against T2, hRAGE-Fc (assay: IC50 of parental M4 scFv-Fc over IC50 of clone, HTRF competition).
B1 was tested, and the “Fold gain scFv-Fc (hRAGE)” value was 7.6 fold. For B2, the “Fold gain scFv-Fc (hRAGE)” value was 9.4 fold. In the case of B3, the “Fold gain scFv-Fc (hRAGE)” value is reported as 38.6 fold. B5 was tested, and the “Fold gain scFv-Fc (hRAGE)” value was 5.1 fold. In the case of B6, the “Fold gain scFv-Fc (hRAGE)” value is reported as 8.8 fold. B7 was tested, and the “Fold gain scFv-Fc (hRAGE)” value was 5 fold.

The binders below were run against T3, human RAGE expressed on CHO cells (human, UniProt Q15109 23-404) (assay: cell ELISA on CHO-RAGE cells, A450 corrected for control CHO cells).
T3 construct: whole, on cells; also called CHO-RAGE cells; cell surface expressed human RAGE
T3 sequence (Q15109 23-404): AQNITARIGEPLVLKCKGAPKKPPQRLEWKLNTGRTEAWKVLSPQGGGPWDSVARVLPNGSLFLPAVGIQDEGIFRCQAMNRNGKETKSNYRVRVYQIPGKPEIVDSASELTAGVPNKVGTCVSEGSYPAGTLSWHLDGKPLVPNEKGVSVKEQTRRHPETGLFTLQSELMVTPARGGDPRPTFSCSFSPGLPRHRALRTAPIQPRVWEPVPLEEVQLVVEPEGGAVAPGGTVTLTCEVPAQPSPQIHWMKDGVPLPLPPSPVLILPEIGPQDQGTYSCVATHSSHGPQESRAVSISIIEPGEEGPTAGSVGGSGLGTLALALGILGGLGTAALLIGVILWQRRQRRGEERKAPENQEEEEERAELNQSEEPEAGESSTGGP
Protocol: (§2) Stably transfected Chinese Hamster Ovary (CHO) cells were engineered to express murine and human RAGE full length proteins. The murine and human RAGE cDNAs were cloned into the mammalian expression vector pSMED, linearized and transfected into CHO cells using lipofectin methods (Kaufman, R. J., 1990, Methods in Enzymology 185:537-66; Kaufman, R. J., 1990, Methods in Enzymology 185:487-511; Pittman, D. D. et al., 1993, Methods in Enzymology 222: 236). Cells were further selected in 20 nM methotrexate and cell extracts were harvested from individual clones and analyzed by SDS sodium dodecyl sulfate-polyacrylamide gel electrophoresis (SDS-PAGE) and Western blotting to confirm expression. […] Absorbance 450 nm values were corrected for the same clones binding to control CHO cells not expressing RAGE. EC50 values were calculated after curve fitting using GraphPad prism and are expressed in μg/ml.
Binder B1 has an EC50 of 0.0285 µg/mL. With B2 the EC50 was 0.0285 µg/mL. In the case of B3, the EC50 is reported as 0.155 µg/mL. With B4 the EC50 was 0.172 µg/mL. B5 showed an EC50 of 0.077 µg/mL. Binder B6 has an EC50 of 0.092 µg/mL. B7 was tested, and the EC50 was 0.133 µg/mL.

What follows are binders tested against T1, HU-RAGE-SA (assay: BIAcore, 10 nM scFv-Fc over directly immobilized HU-RAGE-SA, 1:1 fit).
B17 was tested, and the koff was 0.0293 s⁻¹ and 0.0291 s⁻¹. B1 gave a koff of 0.00141 s⁻¹. For B2, the koff was 0.00153 s⁻¹. B3 gave a koff of 0.000488 s⁻¹. B4 gave a koff of 0.00388 s⁻¹. With B5 the koff was 0.00344 s⁻¹. Work on B6 yielded a koff of 0.000566 s⁻¹. For B7, the koff was 0.105 s⁻¹.

Each binder was assayed against T2, hRAGE-Fc (assay: HTRF competition, scFv vs labelled parental XT-M4 (competitor) on hRAGE).
Protocol: as §1
Binder B18 has an IC50 of 33 nM. B8 showed an IC50 of 2.2 nM. Work on B9 yielded an IC50 of 16.3 nM. With B10 the IC50 was 1.9 nM. B11 showed an IC50 of 8.2 nM. B12 showed an IC50 of 2.4 nM. B13 gave an IC50 of 3 nM. B14 gave an IC50 of 2.6 nM. B15 gave an IC50 of 0.3 nM. Binder B16 has an IC50 of 1.2 nM.

The binders below were run against T2, hRAGE-Fc (assay: HTRF competition, scFv vs labelled parental XT-M4 (competitor) on biotin hRAGE-Fc).
Protocol: as §1
With B18 the IC50 was 33.2 nM.

Molecular target: T2, hRAGE-Fc
Assay: as above
Remark: another data set of the same source
Protocol: as §1
B18 was tested, and the IC50 was 33 nM. B8 gave an IC50 of 2.2 nM. B9 showed an IC50 of 16.3 nM. In the case of B10, the IC50 is reported as 1.9 nM. B11 gave an IC50 of 8.2 nM. B12 showed an IC50 of roughly 2.4 nM. Binder B13 has an IC50 of roughly 3 nM. Work on B14 yielded an IC50 of 2.6 nM. Work on B15 yielded an IC50 of 0.3 nM. For B16, the IC50 was 1.2 nM.

These binders were tested against T3, human RAGE expressed on CHO cells (assay: cell ELISA on CHO-RAGE cells, A450 corrected for control CHO cells; phage display set).
Protocol: as §2
For B17, the EC50 was 0.408 µg/mL.

The binders below were run against T3, human RAGE expressed on CHO cells (assay: cell ELISA on CHO-RAGE cells, A450 corrected for control CHO cells; ribosome display set).
Protocol: as §2
In the case of B17, the EC50 is reported as 0.388 µg/mL.

These binders were tested against T2, hRAGE-Fc (assay: IC50 of parental M4 scFv-Fc (value of the ribosome display set) over IC50 of clone, HTRF competition).
B4 was tested, and the “Fold gain scFv-Fc (hRAGE)” value was 11.1 fold.
